Measurements: US9029508 (dated 2015)
Where “and” joins values, the source holds several entries; their conditions need not be identical. Equal values may be shown once. Read-outs that look alike come from different tables or passages of the source. Blank lines part the entries; values can stand above or below the binder they belong to.

Key:
HGF [1] = target: T1, HGF (human, UniProt P14210); experiment: SPR
HGF [2] = target: T1, HGF; experiment: ELISA
HGF [3] = target: T1, HGF; experiment: ELISA; remark: listed apart in the source
HGF [4] = target: T1, HGF; experiment: competition
CD22 = CD22 (human, UniProt P20273); experiment: ELISA
NRP1 [5] = target: T2, NRP1 (human, UniProt O14786); experiment: SPR
NRP1 [6] = target: T2, NRP1; experiment: ELISA
RON [7] = target: T3, RON (human, UniProt Q04912); experiment: SPR
RON [8] = target: T3, RON; experiment: ELISA
RON [9] = target: T3, RON; experiment: ELISA; remark: listed apart in the source
DLL4 [10] = target: T4, DLL4 (human, UniProt Q9NR61); experiment: SPR
T4 sequence (Q9NR61 27-524): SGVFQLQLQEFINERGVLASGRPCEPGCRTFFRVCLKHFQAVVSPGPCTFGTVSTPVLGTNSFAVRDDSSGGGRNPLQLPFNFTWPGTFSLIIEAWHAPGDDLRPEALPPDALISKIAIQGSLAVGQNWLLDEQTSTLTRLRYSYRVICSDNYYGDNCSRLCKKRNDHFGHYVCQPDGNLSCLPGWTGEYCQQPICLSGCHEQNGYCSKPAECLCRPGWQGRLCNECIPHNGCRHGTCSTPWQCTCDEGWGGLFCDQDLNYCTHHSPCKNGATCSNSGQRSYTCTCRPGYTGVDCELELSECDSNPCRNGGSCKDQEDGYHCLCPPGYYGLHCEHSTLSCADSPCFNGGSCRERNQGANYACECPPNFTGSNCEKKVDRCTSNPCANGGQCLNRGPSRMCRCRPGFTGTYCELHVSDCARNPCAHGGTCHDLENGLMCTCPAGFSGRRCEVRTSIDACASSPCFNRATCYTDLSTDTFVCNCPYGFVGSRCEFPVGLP

DLL4 [11] = target: T4, DLL4; experiment: ELISA
DLL4 [12] = target: T4, DLL4; experiment: ELISA; remark: listed apart in the source
DLL4 [13] = target: T4, DLL4; experiment: competition
DLL4 [14] = target: T4, DLL4; experiment: ELISA; remark: listed apart in the source
CD80 = target: T5, CD80 (human, UniProt P33681); experiment: ELISA
T5 chain: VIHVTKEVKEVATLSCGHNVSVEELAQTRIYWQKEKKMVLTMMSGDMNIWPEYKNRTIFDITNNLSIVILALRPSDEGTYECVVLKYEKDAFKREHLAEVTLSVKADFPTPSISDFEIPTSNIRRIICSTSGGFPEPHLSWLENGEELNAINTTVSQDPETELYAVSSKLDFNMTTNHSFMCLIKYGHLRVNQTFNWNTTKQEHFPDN

T1 sequence (P14210 32-728): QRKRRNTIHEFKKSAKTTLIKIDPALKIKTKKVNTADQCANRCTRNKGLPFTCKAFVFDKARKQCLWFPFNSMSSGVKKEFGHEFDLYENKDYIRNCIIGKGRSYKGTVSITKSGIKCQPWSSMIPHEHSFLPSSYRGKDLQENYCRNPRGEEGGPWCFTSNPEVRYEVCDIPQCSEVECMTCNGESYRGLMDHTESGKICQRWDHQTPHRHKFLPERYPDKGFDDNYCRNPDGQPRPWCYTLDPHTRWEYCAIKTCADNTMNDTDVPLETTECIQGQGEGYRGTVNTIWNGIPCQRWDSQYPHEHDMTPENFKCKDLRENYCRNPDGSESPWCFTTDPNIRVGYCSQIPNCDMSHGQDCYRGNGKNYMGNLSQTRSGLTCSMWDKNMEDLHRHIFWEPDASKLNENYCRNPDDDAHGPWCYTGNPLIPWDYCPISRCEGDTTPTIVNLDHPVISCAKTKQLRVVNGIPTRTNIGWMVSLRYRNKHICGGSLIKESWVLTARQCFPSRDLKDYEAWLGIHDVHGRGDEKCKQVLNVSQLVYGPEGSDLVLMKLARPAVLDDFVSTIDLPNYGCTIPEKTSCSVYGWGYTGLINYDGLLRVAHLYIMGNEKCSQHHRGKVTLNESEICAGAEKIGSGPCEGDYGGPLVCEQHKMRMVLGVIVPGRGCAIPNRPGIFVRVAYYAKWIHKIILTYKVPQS

Kd (HGF [1]): 0.901 nM
EC50 (HGF [2]): 185 nM
EC50 (HGF [3]): > 100 nM
IC50 (HGF [4]): > 100 nM
B1: DVD045 HGF arm (antibody, V domains shown)
VH: QVQLVESGGGLVKPGGSLRLSCAASGFTFSDYYMSWIRQAPGKGLEWVSYISSSGSTIYYADSVKGRFTISRDNAKNSLYLQMNSLRAEDTAVYYCARDEYNSGWYVLFDYWGQGTLVTVSS
VL: DIQMTQSPSSVSASVGDRVTITCRASQGISSWLAWYQQKPGKAPNLLIYEASSLQSGVPSRFGGSGSGTDFTLTISSLQPEDFATYYCQQANGFPWTFGQGTKVEIKR
modifications: DVD-Ig inner

EC50 (CD22): 3.44 nM
B2: AB008 (antibody, V domains shown)
VH: QVQLVQSGAEVKKPGSSVKVSCKASGYTFTSYWLHWVRQAPGQGLEWIGYINPRNDYTEYNQNFKDKATITADESTNTAYMELSSLRSEDTAFYFCARRDITTFYWGQGTTVTVSS
VL: DIQLTQSPSSLSASVGDRVTMSCKSSQSVLYSANHKNYLAWYQQKPGKAPKLLIYWASTRESGVPSRFSGSGSGTDFTFTISSLQPEDIATYYCHQYLSSWTFGGGTKLEIKR

Kd (NRP1 [5]): 2.67 nM
EC50 (NRP1 [6]): 0.58 nM
B3: AB016 (antibody, V domains shown)
VH: EVQLVESGGGLVQPGGSLRLSCAASGFSFSSEPISWVRQAPGKGLEWVSSITGKNGYTYYADSVKGRFTISADTSKNTAYLQMNSLRAEDTAVYYCARWGKKVYGMDVWGQGTLVTVSS
VL: DIQMTQSPSSLSASVGDRVTITCRASQSISSYLAWYQQKPGKAPKLLIYGASSRASGVPSRFSGSGSGTDFTLTISSLQPEDFATYYCQQYMSVPITFGQGTKVEIKR

Kd (NRP1 [5]): 1.28 nM
EC50 (NRP1 [6]): 0.5 nM
B4: DVD049 NRP1 arm (antibody, V domains shown)
VH: B3 VH
VL: B3 VL
modifications: DVD-Ig inner

Kd (NRP1 [5]): 1.44 nM
EC50 (NRP1 [6]): 0.46 nM
B5: DVD050 NRP1 arm (antibody, V domains shown)
VH: B3 VH
VL: B3 VL
modifications: DVD-Ig outer

Kd (RON [7]): 20.2 nM and 20.1 nM
EC50 (RON [8]): 1.6 nM and 0.7 nM and 1.3 nM
EC50 (RON [9]): 0.26 nM and 0.21 nM
B6: AB005 (antibody, V domains shown)
VH: EVQLVQSGGGLVKPGGSLRLSCAASGFTFSSYAMHWVRQAPGKGLEWVAVISYDGSNKYYADSVKGRFTISRDNSKNTLYLQMNSLRAEDTAVYYCARFSGWPNNYYYYGMDVWGQGTTVTVSS
VL: DVVMTQSPLSLPVTPGEPASISCRSSQSLLHSNGFNYVDWYLQKPGQSPHLLIYFGSYRASGVPDRFSGSGSGTDFTLKISRVEAEDVGVYYCMQALQTPPWTFGQGTKVEIRR

Kd (DLL4 [10]): 0.414 nM
EC50 (DLL4 [11]): 0.31 nM
EC50 (DLL4 [12]): 0.03 nM
IC50 (DLL4 [13]): 0.37 nM and 0.4 nM
B7: AB015 (antibody)
chain 1: EVQLVESGGGLVQPGGSLRLSCAASGFTFTDNWISWVRQAPGKGLEWVGYISPNSGFTYYADSVKGRFTISADTSKNTAYLQMNSLRAEDTAVYYCARDNFGGYFDYWGQGTLVTVSS
chain 2: DIQMTQSPSSLSASVGDRVTITCRASQDVSTAVAWYQQKPGKAPKLLIYSASFLYSGVPSRFSGSGSGTDFTLTISSLQPEDFATTYYCQQSYTGTVTFGQGTKVEIKR

Kd (DLL4 [10]): 0.347 nM
EC50 (DLL4 [11]): 0.53 nM
EC50 (DLL4 [14]): 0.25 nM
EC50 (DLL4 [12]): 0.06 nM
IC50 (DLL4 [13]): 0.5 nM
B8: DVD044 DLL4 arm (antibody)
chain 1: B7 chain 1
chain 2: B7 chain 2
modifications: DVD-Ig outer

Kd (DLL4 [10]): 2.32 nM
EC50 (DLL4 [11]): 2.12 nM
EC50 (DLL4 [14]): 0.67 nM
EC50 (DLL4 [12]): 0.5 nM
IC50 (DLL4 [13]): 13.1 nM
B9: DVD043 DLL4 arm (antibody)
chain 1: B7 chain 1
chain 2: B7 chain 2
modifications: DVD-Ig inner

EC50 (CD80): 0.77 nM
B10: AB007 (antibody, V domains shown)
VH: QVQLQESGPGLVKPSETLSLTCAVSGGSISGGYGWGWIRQPPGKGLEWIGSFYSSSGNTYYNPSLKSQVTISTDTSKNQFSLKLNSMTAADTAVYYCVRDRLFSVVGMVYNNWFDVWGPGVLVTVSS
VL: ESALTQPPSVSGAPGQKVTISCTGSTSNIGGYDLHWYQQLPGTAPKLLIYDINKRPSGISDRFSGSKSGTAASLAITGLQTEDEADYYCQSYDSSLNAQVFGGGTRLTVLG
